Experiment [1] addresses human BTN3A as expressed on human cells (PBMC, Daudi, tumour cell lines, HUVEC, HEK293T WT) (human). As to the kind of experiment: cell-based or functional assay.
The target is the same in experiment [2]. As to the kind of experiment: flow cytometry on human PBMCs.
Experiment [3] concerns the target cynomolgus BTN3A as expressed on cynomolgus PBMCs (cynomolgus monkey (Macaca fascicularis)). Description: flow cytometry on cynomolgus PBMCs.
Experiment [4] addresses human BTN3A as expressed on human cells (PBMC, Daudi, tumour cell lines, HUVEC, HEK293T WT) (human). As to the kind of experiment: flow cytometry on Daudi lymphoma cells.
The target of experiment [5] is recombinant human BTN3A1-His (Sino Biological Cat. No. 15973-H08H) (human) (UniProt O00481). As to the kind of experiment: SPR Biacore multi-cycle kinetics; antibody captured on Protein A, BTN3A1-His analyte, 1:1 fit.
Chain of recombinant human BTN3A1-His (Sino Biological Cat. No. 15973-H08H) (human) (O00481 30-254 limits assumed): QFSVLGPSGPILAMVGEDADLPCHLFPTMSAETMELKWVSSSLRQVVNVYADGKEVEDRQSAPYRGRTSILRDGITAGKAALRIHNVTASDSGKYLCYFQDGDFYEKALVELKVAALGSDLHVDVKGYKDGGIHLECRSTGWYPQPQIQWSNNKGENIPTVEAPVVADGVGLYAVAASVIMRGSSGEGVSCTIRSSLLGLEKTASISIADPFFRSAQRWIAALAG

In experiment [1], “Chimeric 20.1 (VH0/Vκ0) IgG4 (S241P, L248E) (antibody)” registered a Functional assay (AML resistant) (γδT cell-based, EC50, µg/mL) of 0.18 µg/mL; a Functional assay (AML sensitive) (γδT cell-based, EC50, µg/mL) of 0.05 µg/mL; a Functional assay (Daudi) (γδT cell-based, EC50, µg/mL) of 0.02 µg/mL. In experiment [2], this substance had an EC50 of 3.02 µg/mL. Moreover, the EC50 in experiment [3] was determined as 4.06 µg/mL. In experiment [4], this substance returned an EC50 of 1.19 µg/mL. The Kd in experiment [5] was 234 pM.
